From article PMC10952462, “Commentary on “The road to reliable peptide assays is paved with good guidelines”” (Clinical Endocrinology, 2023)

What was measured:
[1] = collection tubes containing EDTA; ref 3 (Toräng et al.); cited from earlier work
Source text: (§1) Maurer et al. have quoted Toräng et al.'s study on PYY's major cleaving sites but disregarded the outcome from their study of the inhibitory effects of EDTA on metalloendoproteases, neuroendopeptidase (NEP) and Meprin β.[3] […] We have studied the stability of both PYY species with our inhibitor mix containing DPP4 inhibitor and Aprotinin, where we spiked PYY1 –36 and PYY3 –36 into plasma EDTA and LH from three different volunteers.

[2] = Stability of PYY1-36 and PYY3-36 in EDTA and lithium heparin plasma (LC-MS/MS assay validation); assay type: in vitro ADME, human; details: for degradation in plasma at 4°C / degradation in plasma at room temperature / mean percentage difference in concentration, overall and between all tested sample sets: EDTA or LH plasma; for degradation in plasma at 4°C: 3 h time-point at 4°C; for degradation in plasma at 4°C / degradation in plasma at room temperature: with or without inhibitors (DPP4 inhibitor and Aprotinin), spiked samples and healthy volunteer samples, triplicate QCs (low and high); for degradation in plasma at room temperature: 3 h time-point at room temperature (19°C); for mean percentage difference in concentration, overall and between all tested sample sets: presence versus absence of inhibitors, 3 h at 19°C or 4°C, mean of injections of triplicate QCs (low and high); for differences in concentrations with only DPP4 inhibitor and Aprotinin present: spiked into plasma EDTA and LH from three different volunteers, inhibitor mix of DPP4 inhibitor and Aprotinin
Description: We have verified stability of PYY1 –36 and PYY3 –36 at preanalytical, analytical and post‐analytical stages of the assay. At preanalytical stage the whole blood is collected in prechilled lithium heparin (LH) or ethylenediaminetetraacetic acid (EDTA) tubes and containing evaluated in‐house inhibitors (DPP4 inhibitor and Aprotinin). The sample is centrifuged immediately at 4°C and flash‐frozen on dry ice or transferred immediately to a −80°C freezer. The samples are kept at −80°C until being thawed once only for analysis.
We deemed our protease inhibitors sufficient for maintaining stability of PYY1 –36 and PYY3 –36 and inhibiting peptide degradation.
as §1
Furthermore, we have verified the stability of both species of PYY in both EDTA and LH plasma under the following conditions: (1) freezing and thawing up to a second cycle; (2) incubation at 4°C for up to 4 h; (3) long‐term storage (6 months) at −80°C; (4) postextraction, during storage in the autosampler at 4°C. We have verified the stability of our stock and working stock solutions for up to 7 months, stored at […]. We would state that it is a matter of standard operating procedure that we store these solutions at −80°C and discard these at the end of the day of the run after thawing, affording a safety margin. Last, our assay has been validated both with plasma‐based calibrants and QCs, and cross‐validated in a surrogate matrix (20BMA). We also validated matrix effects (ME) in spiked plasma EDTA and plasma LH. Mean percentage ME for PYY1 –36 was 100.7% and for PYY3 –36, 111% in plasma LH. EDTA ME results were reported previously.[2]

Substance | risk of PYY degradation in collected blood [1] | degradation in plasma at 4°C [2] | degradation in plasma at room temperature [2] | mean percentage difference in concentration, overall and between all tested sample sets [2] | differences in concentrations with only DPP4 inhibitor and Aprotinin present [2]
PYY: peptide YY, species not specified, as studied by Toräng et al. | small |  |  |  | 
peptide YY1 –36 [PYY1 –36] |  | no degradation | no degradation | ≤ 10% | did not detect any significant differences
peptide YY3‐36 [PYY3 –36] |  | no degradation | no degradation | ≤ 10% | did not detect any significant differences
